Tested on: Rv1626 D65E (phosphomimic, Rv1626~P) (Mycobacterium tuberculosis)
Assay: EMSA

5' UTR of Mtb Rv1936 (category 1 ANTAR RNA)
Kd: 15 µM
